In US20240018240A1 (Hoffmann-La Roche, published 2024):
Numbering of substitutions follows the chain as printed.

T1: cynomolgus PLAP (ALPP) expressed on CHO-K1 cells (cynomolgus, UniProt P05187 23-452 (human entry))
T1 chain: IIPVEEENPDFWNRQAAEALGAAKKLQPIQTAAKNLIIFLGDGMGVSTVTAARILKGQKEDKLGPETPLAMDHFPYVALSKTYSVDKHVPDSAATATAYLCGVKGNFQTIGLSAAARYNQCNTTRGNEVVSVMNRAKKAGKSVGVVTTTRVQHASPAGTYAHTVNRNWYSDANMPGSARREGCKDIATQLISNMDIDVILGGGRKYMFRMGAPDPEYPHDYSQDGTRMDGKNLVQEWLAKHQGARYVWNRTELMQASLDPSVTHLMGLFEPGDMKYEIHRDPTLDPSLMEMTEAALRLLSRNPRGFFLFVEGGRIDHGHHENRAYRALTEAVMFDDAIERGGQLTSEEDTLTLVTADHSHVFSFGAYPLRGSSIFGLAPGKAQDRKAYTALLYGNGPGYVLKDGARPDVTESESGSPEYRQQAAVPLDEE

B1: PLAP H1 CD3 P035.093 TCB (bispecific antibody, human IgG1, kappa, L234A L235A)
heavy 1: not shown
heavy 2: QVQLQESGPGLVKPSETLSLTCTVSGFSLTSYGVSWIRQPPGKGLEWIGVIWEDGSTNYHSALISRVTISVDTSKNQFSLKLSSVTAADTAVYYCARPHYGSSYVGAMEYWGAGTTVTVSSASTKGPSVFPLAPSSKSTSGGTAALGCLVEDYFPEPVTVSWNSGALTSGVHTFPAVLQSSGLYSLSSVVTVPSSSLGTQTYICNVNHKPSNTKVDEKVEPKSCDKTHTCPPCPAPEAAGGPSVFLFPPKPKDTLMISRTPEVTCVVVDVSHEDPEVKFNWYVDGVEVHNAKTKPREEQYNSTYRVVSVLTVLHQDWLNGKEYKCKVSNKALGAPIEKTISKAKGQPREPQVCTLPPSRDELTKNQVSLSCAVKGFYPSDIAVEWESNGQPENNYKTTPPVLDSDGSFFLVSKLTVDKSRWQQGNVFSCSVMHEALHNHYTQKSLSLSP
light 1: DIQMTQSPSSLSASVGDRVTITCRASENIYSYVAWYQQKPGKAPKLLIYNAKSLASGVPSRFSGSGSGTDFTLTISSLQPEDFATYYCQHHYVSPWTFGGGTKLEIKRTVAAPSVFIFPPSDRKLKSGTASVVCLLNNFYPREAKVQWKVDNALQSGNSQESVTEQDSKDSTYSLSSTLTLSKADYEKHKVYACEVTHQGLSSPVTKSFNRGEC
light 2: EVQLLESGGGLVQPGGSLRLSCAASGFTFSSYAMNWVRQAPGKGLEWVSRIRSKYNNYATYYADSVKGRFTISRDDSKNTLYLQMNSLRAEDTAVYYCVRASNFPASYVSYFAYWGQGTLVTVSSASVAAPSVFIFPPSDEQLKSGTASVVCLLNNFYPREAKVQWKVDNALQSGNSQESVTEQDSKDSTYSLSSTLTLSKADYEKHKVYACEVTHQGLSSPVTKSFNRGEC
notes: also called PLAP H1 TCB; PLAP (H1) TCB
B2: PLAP H3 CD3 P035.093 TCB (bispecific antibody, human IgG1, kappa, L234A L235A)
heavy 1: not shown
heavy 2: B1 heavy 2 with H60N, S61P, A62S, I64K
light 1: B1 light 1
light 2: B1 light 2
notes: 2+1 IgG CrossFab, inverted; also called PLAP H3 TCB; PLAP (H3) TCB
B3: PLAP H2 CD3 P035.093 TCB (bispecific antibody, human IgG1, kappa, L234A L235A)
heavy 1: not shown
heavy 2: B1 heavy 2 with P41A, I69M
light 1: B1 light 1
light 2: B1 light 2
notes: also called PLAP H2 TCB; PLAP (H2) TCB
B4: PLAP H4 CD3 P035.093 TCB (bispecific antibody, human IgG1, kappa, L234A L235A)
heavy 1: not shown
heavy 2: B1 heavy 2 with F27G, L29I
light 1: B1 light 1
light 2: B1 light 2
notes: also called PLAP H4 TCB
B5: PLAP H4 CD3orig TCB (bispecific antibody, human IgG1, kappa, L234A L235A)
heavy 1: not shown
heavy 2: B1 heavy 2 with F27G, L29I
light 1: B1 light 1
light 2: B1 light 2 with S31T, A101H, S102G, P105G, A106N, Y111W
B6: PLAP H5 CD3 P035.093 TCB (bispecific antibody, human IgG1, kappa, L234A L235A)
heavy 1: not shown
heavy 2: B1 heavy 2 with F27G, L29V
light 1: B1 light 1
light 2: B1 light 2
notes: also called PLAP H5 TCB; PLAP (H5) TCB

Columns and labels:
[1] = target: T2, human PLAP (ALPP) expressed on CHO-K1 cells (human, UniProt P05187 23-506); assay: cell-based or functional assay
T2 sequence (P05187 23-506): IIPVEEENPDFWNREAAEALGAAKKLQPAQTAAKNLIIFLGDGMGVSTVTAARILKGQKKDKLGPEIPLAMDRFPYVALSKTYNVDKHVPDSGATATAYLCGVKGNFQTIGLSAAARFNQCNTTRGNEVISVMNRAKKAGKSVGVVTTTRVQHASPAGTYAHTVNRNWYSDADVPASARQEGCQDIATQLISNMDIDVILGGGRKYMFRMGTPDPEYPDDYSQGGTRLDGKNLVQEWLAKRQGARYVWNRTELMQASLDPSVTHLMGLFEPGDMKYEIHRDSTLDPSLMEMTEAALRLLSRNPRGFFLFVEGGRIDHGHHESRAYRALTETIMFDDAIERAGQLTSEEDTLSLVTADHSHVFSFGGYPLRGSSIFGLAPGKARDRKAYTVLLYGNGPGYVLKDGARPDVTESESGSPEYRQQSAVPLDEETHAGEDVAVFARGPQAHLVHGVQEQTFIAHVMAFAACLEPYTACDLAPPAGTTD

[2] = target: human ALPG (ALPPL2) expressed on CHO-K1 cells (human, UniProt P10696 20-503); assay: cell-based or functional assay
[3] = target: T2, human PLAP (ALPP) expressed on CHO-K1 …; assay: cell-based or functional assay; remark: listed apart in the source
[4] = target: T1, cynomolgus PLAP (ALPP) expressed on …; assay: cell-based or functional assay
[5] = target: T3, Human CD3ε stalk-Fc(knob)-Avi/CD3δ stalk-Fc(hole) (human); assay: SPR (Biacore T200, 25°C); TCB captured by anti-PG antibody on CM5 chip, 300 nM human CD3ε/δ injected; relative active concentration
T3 construct: Heterodimer of CD3 delta and CD3 epsilon ectodomains fused to a human Fc domain with knob-into-hole modifications and C-terminal Avi-tag; also called human CD3ε/δ; CD3ε/δ
Method: SPR experiments were performed on a Biacore T200 instrument (GE Healthcare) at 25° C. with HBS-P+(10 mM HEPES, 150 mM NaCl pH 7.4, 0.05% Surfactant P20) as running and dilution buffer. Anti-PG antibody (see Example 3) was immobilized by amine coupling (using amine coupling kit, Cytiva #BR100050) at a density of >6000 RU on a CM5 Chip (Sensor Chip CM5, Cytiva #29104988). The 10 nM solutions of TCB molecule samples in HBS-P+ were captured for 30 sec at a flow rate 10 μl/min. Then a 300 nM solution of human CD3ε/δ (see Example 3, SEQ ID NOs 24 and 25) was injected for 150 sec association time and 120 sec dissociation time at a flow rate of 10 μl/min. The regeneration of the surface followed by a 35 sec regeneration step with a 20 mM NaOH solution. The data were analyzed with the Biacore T200 Evaluation and Excel software. For the calculation of relative active concentration (RAC) the binding report point (BRP) was used (the BRP is a standard readout point in SPR, maximum response (unit/value) of interaction between antigen and antibody).

[6] = target: T4, Human PLAP (soluble, as injected in SPR) (human, UniProt P05187 23-506); assay: SPR RAC assay (Biacore T200, 25°C); TCB captured by anti-PG antibody on CM3 chip, 100 nM human PLAP injected
T4 construct: also called PLAP target
T4 sequence (P05187 23-506 limits assumed): as the sequence (P05187 23-506) above
Method: (§1) SPR experiments were performed on a Biacore T200 instrument (GE Healthcare). For the immobilization. HBS-N pH 7.4 was used as a running buffer (Cytiva #BR100670). Anti-PG antibody (see Example 3) was immobilized by amine coupling (using amine coupling kit, Cytiva #BR100050) at a density of >6000 RU on a CM3 Chip (Cytiva #29104990). The anti-PG antibody stock solution was diluted to a concentration of 25 μg/mL in a 10 mM sodium acetate buffer of pH 5.0 (Cytiva #BR100351). After the immobilization the analysis was performed at 25° C., and using PBS-P+ (Cytiva #28995084) as a running and a dilution buffer. The 5 nM solutions of TCB molecule samples in PBS-P+ were captured for 30 sec at a flow rate 5 μl/min. Then a 100 nM solution of human PLAP was injected for 90 sec association time and 30 sec dissociation time at a flow rate of 8 μl/min. Thereafter, a 200 nM solution of human CD3ε/δ (see Example 3, SEQ ID NOs 24 and 25) was injected for 90 sec association time and 30 sec dissociation time at a flow rate of 8 μl/min. The regeneration of the surface followed by two 60 sec regeneration steps with a 10 mM NaOH solution. The data were analyzed with the Biacore T200 Evaluation and Excel software. For the calculation of relative active concentration (RAC) the binding report point (BRP) was used. To calculate the RAC, the target and antibody concentrations were referenced to the unstressed sample (−80° C.) as 100% comparison. For the normalization of the protein concentration, reference was made to anti-PG antibody capturing (RAC values).

[7] = target: T4, Human PLAP (soluble, as injected in SPR); assay: SPR single cycle kinetics (Biacore T200, 25°C); TCB captured by anti-PG antibody on CM3 chip, human PLAP as analyte
Method: (§2) The binding kinetics of the PLAP TCB molecules generated in Example 17 were characterized by the single cycle kinetic (SSK) assay. For this assay, again the SPR Biacore T200 was used. The immobilization was performed at 25° C. with HBS-N pH 7.4 as a running buffer (Cytiva #BR100670). The anti-PG antibody (see Example 3) was immobilized by amine coupling (using amine coupling kit, Cytiva #BR100050) at a density of >5000 RU on a CM3 Chip (Cytiva #29104990). The anti-PG antibody stock solution was diluted to a concentration of 25 μg/mL in a 10 mM sodium acetate buffer of pH 5.0 (Cytiva #BR100351). After the immobilization the analysis was performed at 25° C., and PBS-P+(Cytiva #28995084) was used as a running and a dilution buffer. The 3 nM solutions of TCB molecule samples in PBS-P+ were captured with anti-PG antibody on a CM3 sensor chip.
(§3) The derived kinetic rate constants and corresponding affinity values (equilibrium dissociation constant KD) are summarized in Table 26 for the CD3 binder and in Table 27 for the PLAP binder. The data were analyzed with the Biacore T200 Evaluation and Excel software.

[8] = target: T3, Human CD3ε stalk-Fc(knob)-Avi/CD3δ …; assay: SPR single cycle kinetics (Biacore T200, 25°C); TCB captured by anti-PG antibody on CM3 chip, human CD3ε/δ as analyte
Method: as §2, §3

[9] = target: T3, Human CD3ε stalk-Fc(knob)-Avi/CD3δ …; assay: SPR RAC assay (Biacore T200, 25°C); TCB captured by anti-PG antibody on CM3 chip, 200 nM human CD3ε/δ injected after 100 nM human PLAP
Method: as §1

Binder | EC50 (pM), Jurkat NFAT reporter assay (luminescence, 6 h) [1] [pM] | EC50 (pM), Jurkat NFAT reporter assay (luminescence, 6 h) [2] [pM] | EC50 (pM), Jurkat NFAT reporter assay to show cynomolgus cross-reactivity [3] [pM] | EC50 (pM), Jurkat NFAT reporter assay to show cynomolgus cross-reactivity [4] [pM] | RAC % of CD3 binding, stress A [5] [%] | RAC % of CD3 binding, stress B [5] [%] | RAC % of CD3 binding, unstressed [5] [%] | RAC [%] PLAP binding, stress A [6] [%] | RAC [%] PLAP binding, stress B [6] [%] | RAC [%] PLAP binding, unstressed [6] [%] | Kd [7] [nM] | koff [7] [s⁻¹] | kon [7] [M⁻¹ s⁻¹] | Kd [8] [nM] | koff [8] [s⁻¹] | kon [8] [M⁻¹ s⁻¹] | RAC [%] CD3 binding, stress A [9] [%] | RAC [%] CD3 binding, stress B [9] [%] | RAC [%] CD3 binding, unstressed [9] [%]
B1 | 37 | 40 | 98 | 45 | 100 | 98 | 100 |  |  |  |  |  |  |  |  |  |  |  | 
B2 | 35 | 35 | 98 | 48 | 99 | 97 | 100 | 100 | 100 | 100 | 0.0051 | 2.22e-05 | 4.33e+06 | 0.5 | 0.000933 | 2.09e+06 | 99 | 98 | 100
B3 | 21 | 22 |  |  | 100 | 96 | 100 |  |  |  |  |  |  |  |  |  |  |  | 
B4 | 36 | 34 |  |  | 100 | 98 | 100 |  |  |  |  |  |  |  |  |  |  |  | 
B5 |  |  |  |  |  |  |  | 99 | 103 | 100 | 0.0496 | 8.91e-05 | 1.8e+06 | 5.7 | 0.00167 | 292000 | 97 | 78 | 100
B6 | 36 | 34 | 37 | 52 | 97 | 99 | 100 |  |  |  |  |  |  |  |  |  |  |  | 
